The numbers were not newly measured in US20080213253A1, “COMBINATION THERAPY FOR THE TREATMENT OF CANCER” (DYAX CORP., priority 2007, published 2008), which cites them from elsewhere.

Data set [1] addresses Tie complex (Tie1 and Tie2) (Homo sapiens, UniProt P35590). The following applies: statement in words, no data shown.
Data set [2] concerns the target Tie1 (Homo sapiens, UniProt P35590). The following applies: statement in words, no data shown.

Chain of Tie1 (P35590 22-1138): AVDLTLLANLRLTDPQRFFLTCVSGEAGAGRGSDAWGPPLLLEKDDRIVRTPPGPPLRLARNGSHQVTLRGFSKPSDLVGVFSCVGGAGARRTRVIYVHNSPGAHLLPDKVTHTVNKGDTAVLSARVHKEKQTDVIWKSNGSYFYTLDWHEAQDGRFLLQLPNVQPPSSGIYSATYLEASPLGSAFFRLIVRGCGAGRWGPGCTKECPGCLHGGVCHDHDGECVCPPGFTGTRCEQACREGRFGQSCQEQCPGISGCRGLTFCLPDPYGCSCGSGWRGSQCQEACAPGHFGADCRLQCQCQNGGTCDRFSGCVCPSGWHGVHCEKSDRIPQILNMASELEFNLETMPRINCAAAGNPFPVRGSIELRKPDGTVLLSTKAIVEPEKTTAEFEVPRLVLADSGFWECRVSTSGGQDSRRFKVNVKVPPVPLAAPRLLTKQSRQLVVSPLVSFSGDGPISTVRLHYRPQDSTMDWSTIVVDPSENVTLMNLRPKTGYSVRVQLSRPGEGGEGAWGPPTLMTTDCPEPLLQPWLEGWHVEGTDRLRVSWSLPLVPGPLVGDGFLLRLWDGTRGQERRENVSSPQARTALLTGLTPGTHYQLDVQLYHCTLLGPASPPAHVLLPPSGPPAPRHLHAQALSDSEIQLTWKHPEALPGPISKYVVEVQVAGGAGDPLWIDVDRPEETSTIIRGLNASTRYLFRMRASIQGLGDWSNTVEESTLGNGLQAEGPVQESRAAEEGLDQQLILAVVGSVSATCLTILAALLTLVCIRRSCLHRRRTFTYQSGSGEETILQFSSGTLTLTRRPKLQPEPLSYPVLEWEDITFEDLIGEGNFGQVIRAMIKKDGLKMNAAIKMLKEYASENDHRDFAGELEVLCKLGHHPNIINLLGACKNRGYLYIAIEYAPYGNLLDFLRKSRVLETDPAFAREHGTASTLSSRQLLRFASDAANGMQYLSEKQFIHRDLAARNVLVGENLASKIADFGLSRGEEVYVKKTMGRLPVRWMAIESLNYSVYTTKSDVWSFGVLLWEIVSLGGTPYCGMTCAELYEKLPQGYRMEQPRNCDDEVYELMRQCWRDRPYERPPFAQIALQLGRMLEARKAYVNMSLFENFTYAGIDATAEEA
Chain of Tie complex (Tie1 and Tie2) (P35590 22-1138, one chain of several): as the sequence (P35590 22-1138) above

B1: M0044-B08: Tie1 ectodomain-binding antibody; variable domains SEQ ID NO:1 and 3 (antibody, V domains shown)
VL: QDIQMTQSPSFLSASVGDRVTISCRASQYISIYLNWYQQRPGEAPKLLINAASSLQSGDPSRFSGSGSGTDFTLTINSLQPDDFATYYCQQYKSYPLTFGEGTKVEIK
VH: EVQLLESGGGLVQPGGSLRLSCAASGFTFSAYGMGWVRQAPGKGLEWVSVISPSGGQTSYADSVKGRFTISRDNSKNTLYLQMNSLRAEDTALYYCAGGDRYGPLHYWGQGTLVTVSS
For B1, in data set [1], the Tie complex formation entry is recorded as “induce Tie complex formation”. Besides, the “down modulation of Tie1 from the cell surface” value in data set [2] is “down modulation of Tie1 from the cell surface”.
